Data reported in patent US20200283478A1 (Genentech, published 2020).
Read-outs that look alike come from different tables or passages of the source. Numbered stars: 1 amine (or outer) side, 2 acyl side, 3 side chain; on linkers, the order of the positions; unused ones are H or OH. Bridge positions count the residues as written; N and C are the ends. Square brackets hold non-standard residues; d marks the D form. NH(CH2)9CO = O=C(CCCCCCCCCN[*:1])[*:2]; NH(CH2)8CO = O=C(CCCCCCCCN[*:1])[*:2]; Aun = NCCCCCCCCCCC(=O)O; Aoc = NCCCCCCCC(=O)O

B1: Compound 84 (Ac-CRLPWNLQR-(Ade)-C-NH2) (peptide)
peptide: Ac-CRLPWNLQR[NH(CH2)9CO]C-NH2
modifications: disulfide 1-11
SMILES: CC(=O)N[C@H]1CSSC[C@@H](C(N)=O)NC(=O)CCCCCCCCCNC(=O)[C@H](CCCNC(=N)N)NC(=O)[C@H](CCC(N)=O)NC(=O)[C@H](CC(C)C)NC(=O)[C@H](CC(N)=O)NC(=O)[C@H](Cc2c[nH]c3ccccc23)NC(=O)[C@@H]2CCCN2C(=O)[C@H](CC(C)C)NC(=O)[C@H](CCCNC(=N)N)NC1=O
B2: Compound 85 (Ac-CRLPWNLQR-(Ano)-C-NH2) (peptide)
peptide: Ac-CRLPWNLQR[NH(CH2)8CO]C-NH2
modifications: disulfide 1-11
SMILES: CC(=O)N[C@H]1CSSC[C@@H](C(N)=O)NC(=O)CCCCCCCCNC(=O)[C@H](CCCNC(=N)N)NC(=O)[C@H](CCC(N)=O)NC(=O)[C@H](CC(C)C)NC(=O)[C@H](CC(N)=O)NC(=O)[C@H](Cc2c[nH]c3ccccc23)NC(=O)[C@@H]2CCCN2C(=O)[C@H](CC(C)C)NC(=O)[C@H](CCCNC(=N)N)NC1=O
B3: Compound 102 (Ac-CRLPWNLQrIGLPC-NH2) (peptide)
peptide: Ac-CRLPWNLQ[dR]IGLPC-NH2
modifications: disulfide 1-14
SMILES: CC[C@H](C)[C@@H]1NC(=O)[C@@H](CCCNC(=N)N)NC(=O)[C@H](CCC(N)=O)NC(=O)[C@H](CC(C)C)NC(=O)[C@H](CC(N)=O)NC(=O)[C@H](Cc2c[nH]c3ccccc23)NC(=O)[C@@H]2CCCN2C(=O)[C@H](CC(C)C)NC(=O)[C@H](CCCNC(=N)N)NC(=O)[C@@H](NC(C)=O)CSSC[C@@H](C(N)=O)NC(=O)[C@@H]2CCCN2C(=O)[C@H](CC(C)C)NC(=O)CNC1=O
B4: Compound 105 (Ac-CRLPWnLQRIGLPC-NH2) (peptide)
peptide: Ac-CRLPW[dN]LQRIGLPC-NH2
modifications: disulfide 1-14
SMILES: CC[C@H](C)[C@@H]1NC(=O)[C@H](CCCNC(=N)N)NC(=O)[C@H](CCC(N)=O)NC(=O)[C@H](CC(C)C)NC(=O)[C@@H](CC(N)=O)NC(=O)[C@H](Cc2c[nH]c3ccccc23)NC(=O)[C@@H]2CCCN2C(=O)[C@H](CC(C)C)NC(=O)[C@H](CCCNC(=N)N)NC(=O)[C@@H](NC(C)=O)CSSC[C@@H](C(N)=O)NC(=O)[C@@H]2CCCN2C(=O)[C@H](CC(C)C)NC(=O)CNC1=O
B5: Compound 86 (Ac-CRLPWNLQR-(Aoc)-C-NH2) (peptide)
peptide: Ac-CRLPWNLQR[Aoc]C-NH2
modifications: disulfide 1-11
SMILES: CC(=O)N[C@H]1CSSC[C@@H](C(N)=O)NC(=O)CCCCCCCNC(=O)[C@H](CCCNC(=N)N)NC(=O)[C@H](CCC(N)=O)NC(=O)[C@H](CC(C)C)NC(=O)[C@H](CC(N)=O)NC(=O)[C@H](Cc2c[nH]c3ccccc23)NC(=O)[C@@H]2CCCN2C(=O)[C@H](CC(C)C)NC(=O)[C@H](CCCNC(=N)N)NC1=O
B6: Compound 100 (Ac-CRLPWNLQRIGlPC-NH2) (peptide)
peptide: Ac-CRLPWNLQRIG[dL]PC-NH2
modifications: disulfide 1-14
SMILES: CC[C@H](C)[C@@H]1NC(=O)[C@H](CCCNC(=N)N)NC(=O)[C@H](CCC(N)=O)NC(=O)[C@H](CC(C)C)NC(=O)[C@H](CC(N)=O)NC(=O)[C@H](Cc2c[nH]c3ccccc23)NC(=O)[C@@H]2CCCN2C(=O)[C@H](CC(C)C)NC(=O)[C@H](CCCNC(=N)N)NC(=O)[C@@H](NC(C)=O)CSSC[C@@H](C(N)=O)NC(=O)[C@@H]2CCCN2C(=O)[C@@H](CC(C)C)NC(=O)CNC1=O
B7: Compound 83 (Ac-CRLPWNLQR-(Aun)-C-NH2) (peptide)
peptide: Ac-CRLPWNLQR[Aun]C-NH2
modifications: disulfide 1-11
SMILES: CC(=O)N[C@H]1CSSC[C@@H](C(N)=O)NC(=O)CCCCCCCCCCNC(=O)[C@H](CCCNC(=N)N)NC(=O)[C@H](CCC(N)=O)NC(=O)[C@H](CC(C)C)NC(=O)[C@H](CC(N)=O)NC(=O)[C@H](Cc2c[nH]c3ccccc23)NC(=O)[C@@H]2CCCN2C(=O)[C@H](CC(C)C)NC(=O)[C@H](CCCNC(=N)N)NC1=O
B8: Compound 106 (Ac-CRLPwNLQRIGLPC-NH2) (peptide)
peptide: Ac-CRLP[dW]NLQRIGLPC-NH2
modifications: disulfide 1-14
SMILES: CC[C@H](C)[C@@H]1NC(=O)[C@H](CCCNC(=N)N)NC(=O)[C@H](CCC(N)=O)NC(=O)[C@H](CC(C)C)NC(=O)[C@H](CC(N)=O)NC(=O)[C@@H](Cc2c[nH]c3ccccc23)NC(=O)[C@@H]2CCCN2C(=O)[C@H](CC(C)C)NC(=O)[C@H](CCCNC(=N)N)NC(=O)[C@@H](NC(C)=O)CSSC[C@@H](C(N)=O)NC(=O)[C@@H]2CCCN2C(=O)[C@H](CC(C)C)NC(=O)CNC1=O
B9: Compound 103 (Ac-CRLPWNLqRIGLPC-NH2) (peptide)
peptide: Ac-CRLPWNL[dQ]RIGLPC-NH2
modifications: disulfide 1-14
SMILES: CC[C@H](C)[C@@H]1NC(=O)[C@H](CCCNC(=N)N)NC(=O)[C@@H](CCC(N)=O)NC(=O)[C@H](CC(C)C)NC(=O)[C@H](CC(N)=O)NC(=O)[C@H](Cc2c[nH]c3ccccc23)NC(=O)[C@@H]2CCCN2C(=O)[C@H](CC(C)C)NC(=O)[C@H](CCCNC(=N)N)NC(=O)[C@@H](NC(C)=O)CSSC[C@@H](C(N)=O)NC(=O)[C@@H]2CCCN2C(=O)[C@H](CC(C)C)NC(=O)CNC1=O
B10: Compound 104 (Ac-CRLPWNlQRIGLPC-NH2) (peptide)
peptide: Ac-CRLPWN[dL]QRIGLPC-NH2
modifications: disulfide 1-14
SMILES: CC[C@H](C)[C@@H]1NC(=O)[C@H](CCCNC(=N)N)NC(=O)[C@H](CCC(N)=O)NC(=O)[C@@H](CC(C)C)NC(=O)[C@H](CC(N)=O)NC(=O)[C@H](Cc2c[nH]c3ccccc23)NC(=O)[C@@H]2CCCN2C(=O)[C@H](CC(C)C)NC(=O)[C@H](CCCNC(=N)N)NC(=O)[C@@H](NC(C)=O)CSSC[C@@H](C(N)=O)NC(=O)[C@@H]2CCCN2C(=O)[C@H](CC(C)C)NC(=O)CNC1=O
B11: Compound 101 (Ac-CRLPWNLQRiGLPC-NH2) (peptide)
peptide: Ac-CRLPWNLQR[dI]GLPC-NH2
modifications: disulfide 1-14
SMILES: CC[C@@H](C)[C@H]1NC(=O)[C@H](CCCNC(=N)N)NC(=O)[C@H](CCC(N)=O)NC(=O)[C@H](CC(C)C)NC(=O)[C@H](CC(N)=O)NC(=O)[C@H](Cc2c[nH]c3ccccc23)NC(=O)[C@@H]2CCCN2C(=O)[C@H](CC(C)C)NC(=O)[C@H](CCCNC(=N)N)NC(=O)[C@@H](NC(C)=O)CSSC[C@@H](C(N)=O)NC(=O)[C@@H]2CCCN2C(=O)[C@H](CC(C)C)NC(=O)CNC1=O
B12: Compound 107 (Ac-CRLpWNLQRIGLPC-NH2) (peptide)
peptide: Ac-CRL[dP]WNLQRIGLPC-NH2
modifications: disulfide 1-14
SMILES: CC[C@H](C)[C@@H]1NC(=O)[C@H](CCCNC(=N)N)NC(=O)[C@H](CCC(N)=O)NC(=O)[C@H](CC(C)C)NC(=O)[C@H](CC(N)=O)NC(=O)[C@H](Cc2c[nH]c3ccccc23)NC(=O)[C@H]2CCCN2C(=O)[C@H](CC(C)C)NC(=O)[C@H](CCCNC(=N)N)NC(=O)[C@@H](NC(C)=O)CSSC[C@@H](C(N)=O)NC(=O)[C@@H]2CCCN2C(=O)[C@H](CC(C)C)NC(=O)CNC1=O

Legend:
PCSK9Δhelix [1] = target: T1, PCSK9Δhelix (human, Chemically biotinylated in the phage ELISAs; the site is not given.); assay: phage spot ELISA
T1 construct: construct M1-Q692 with engineered TEV site, cleaved by TEV; also called His-PCSK9Δhelix; open groove PCSK9Δhelix
T1 sequence (prodomain, as listed by the source mutant limits assumed, chain 1 of 2): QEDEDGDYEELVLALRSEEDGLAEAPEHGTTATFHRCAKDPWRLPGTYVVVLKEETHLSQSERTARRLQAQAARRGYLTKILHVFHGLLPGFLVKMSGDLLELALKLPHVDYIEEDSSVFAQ
T1 sequence (chain, as listed by the source mutant limits assumed, chain 2 of 2): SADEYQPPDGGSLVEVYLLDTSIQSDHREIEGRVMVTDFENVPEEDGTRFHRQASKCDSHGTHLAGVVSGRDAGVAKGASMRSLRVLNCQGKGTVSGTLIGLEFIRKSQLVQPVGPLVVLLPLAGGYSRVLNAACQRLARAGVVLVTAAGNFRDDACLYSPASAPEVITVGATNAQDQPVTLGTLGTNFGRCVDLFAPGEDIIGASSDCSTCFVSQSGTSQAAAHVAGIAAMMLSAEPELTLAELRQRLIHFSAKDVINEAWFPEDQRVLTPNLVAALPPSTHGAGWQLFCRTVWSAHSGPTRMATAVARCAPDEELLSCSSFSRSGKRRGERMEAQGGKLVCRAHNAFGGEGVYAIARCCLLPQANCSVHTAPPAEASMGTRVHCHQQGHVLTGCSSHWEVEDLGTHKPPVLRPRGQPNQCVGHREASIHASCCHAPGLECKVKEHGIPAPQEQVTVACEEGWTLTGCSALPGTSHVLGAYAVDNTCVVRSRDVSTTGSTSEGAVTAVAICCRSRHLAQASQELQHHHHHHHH

[2] = target: T2, proprotein convertase subtilisin/kexin type 9 (PCSK9) (human, UniProt Q8NBP7 31-692); assay: phage spot ELISA
T2 construct: His-tagged full-length PCSK9 in TR-FRET and SPR, biotinylated in phage ELISA; secreted protein is autoprocessed (prodomain plus catalytic/CRD chain starting at S153); also called rec.PCSK9; His-PCSK9
T2 sequence (Q8NBP7 other isoform, or with tags, fused parts or gaps limits assumed): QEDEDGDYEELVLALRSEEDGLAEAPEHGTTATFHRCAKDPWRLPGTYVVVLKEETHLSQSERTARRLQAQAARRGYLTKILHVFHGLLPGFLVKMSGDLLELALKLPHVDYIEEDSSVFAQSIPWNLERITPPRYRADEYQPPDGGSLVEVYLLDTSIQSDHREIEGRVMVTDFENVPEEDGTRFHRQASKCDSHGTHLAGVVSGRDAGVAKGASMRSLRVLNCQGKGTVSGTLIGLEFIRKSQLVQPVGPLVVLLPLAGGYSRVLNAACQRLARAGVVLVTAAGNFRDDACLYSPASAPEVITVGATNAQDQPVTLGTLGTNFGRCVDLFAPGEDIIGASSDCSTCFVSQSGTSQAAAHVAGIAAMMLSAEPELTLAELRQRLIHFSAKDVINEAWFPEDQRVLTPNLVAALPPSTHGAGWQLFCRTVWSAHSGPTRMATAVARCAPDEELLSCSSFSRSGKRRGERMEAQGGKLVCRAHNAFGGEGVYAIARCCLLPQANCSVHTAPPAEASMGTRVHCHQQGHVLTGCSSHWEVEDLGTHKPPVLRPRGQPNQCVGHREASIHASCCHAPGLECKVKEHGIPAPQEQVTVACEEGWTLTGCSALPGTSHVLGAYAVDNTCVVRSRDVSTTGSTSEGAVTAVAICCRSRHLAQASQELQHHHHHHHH

PCSK9Δhelix [3] = target: T1, PCSK9Δhelix; assay: phage spot ELISA; remark: listed apart in the source
Text: (§1) The binding signal of the same phage particle to NeutrAvidin was considered as non-specific binding (“noise”).

[4] = target: T2, proprotein convertase subtilisin/kexin …; assay: phage spot ELISA; remark: listed apart in the source
Text: as §1

[5] = target: T3, His-tagged, full-length PCSK9 (human, UniProt Q8NBP7 31-692); assay: TR-FRET competition (PCSK9/EGF(A) assay); competitor EGF(A)-Fc;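 further: proximity signal from anti-His APC on PCSK9 paired with anti-Fc europium on the Fc ligand, read as normalized TR-FRET ratio across compound dilutions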
T3 construct: secreted PCSK9 is autocatalytically cleaved into prodomain and catalytic domain + CRD (from S153), which stay associated; also called His-PCSK9; proprotein convertase subtilisin/kexin type 9; not shown: His tag
T3 sequence (Q8NBP7 31-692 limits assumed): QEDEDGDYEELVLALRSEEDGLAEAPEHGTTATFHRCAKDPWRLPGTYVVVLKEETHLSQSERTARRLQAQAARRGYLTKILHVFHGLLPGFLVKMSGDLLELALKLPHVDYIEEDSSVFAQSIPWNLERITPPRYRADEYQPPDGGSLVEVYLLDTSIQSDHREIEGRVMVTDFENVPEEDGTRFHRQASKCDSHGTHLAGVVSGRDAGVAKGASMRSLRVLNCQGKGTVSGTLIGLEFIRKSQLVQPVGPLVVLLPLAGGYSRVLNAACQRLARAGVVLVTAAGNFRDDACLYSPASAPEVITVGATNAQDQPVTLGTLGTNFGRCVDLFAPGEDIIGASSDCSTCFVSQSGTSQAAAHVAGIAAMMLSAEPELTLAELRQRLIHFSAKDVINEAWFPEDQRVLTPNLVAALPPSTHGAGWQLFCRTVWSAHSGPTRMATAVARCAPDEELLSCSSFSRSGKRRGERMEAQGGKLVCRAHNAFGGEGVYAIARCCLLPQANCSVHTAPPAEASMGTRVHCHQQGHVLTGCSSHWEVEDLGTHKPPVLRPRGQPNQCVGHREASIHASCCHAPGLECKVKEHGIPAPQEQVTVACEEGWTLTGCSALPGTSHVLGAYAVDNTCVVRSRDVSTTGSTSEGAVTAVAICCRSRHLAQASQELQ

Row | Binder | IC50 [5] | also measured
1 | TAFTSWEEYLDWVGSGTRYADRGVMVYSLS [SEQ ID NO 321] |  | ELISA (PCSK9Δhelix [1]): 3.03; s/n ratio (PCSK9Δhelix [1]): 27.5; ELISA [2]: 3.03; s/n ratio [2]: 30.3; ELISA (PCSK9Δhelix [3]): 2.81; s/n ratio (PCSK9Δhelix [3]): 22.8; ELISA [4]: 2.85; s/n ratio [4]: 23
2 | B1 | > 50 µM | 
3 | B2 | > 50 µM | 
4 | B3 | > 50 µM | 
5 | B4 | > 50 µM | 
6 | B5 | > 50 µM | 
7 | B6 | > 50 µM | 
8 | B7 | > 50 µM | 
9 | B8 | > 50 µM | 
10 | B9 | > 50 µM | 
11 | B10 | > 50 µM | 
12 | B11 | > 50 µM | 
13 | B12 | > 50 µM | 
